# Patent US20070072177A1
# Molecular target: rabies virus glycoprotein (G protein) of strain CVS-11 (rabies virus strain CVS-11) (UniProt O92284)
# Assay: cell-based or functional assay
# Sequence of rabies virus glycoprotein (G protein) of strain CVS-11 (rabies virus strain CVS-11) (O92284 20-524 limits assumed): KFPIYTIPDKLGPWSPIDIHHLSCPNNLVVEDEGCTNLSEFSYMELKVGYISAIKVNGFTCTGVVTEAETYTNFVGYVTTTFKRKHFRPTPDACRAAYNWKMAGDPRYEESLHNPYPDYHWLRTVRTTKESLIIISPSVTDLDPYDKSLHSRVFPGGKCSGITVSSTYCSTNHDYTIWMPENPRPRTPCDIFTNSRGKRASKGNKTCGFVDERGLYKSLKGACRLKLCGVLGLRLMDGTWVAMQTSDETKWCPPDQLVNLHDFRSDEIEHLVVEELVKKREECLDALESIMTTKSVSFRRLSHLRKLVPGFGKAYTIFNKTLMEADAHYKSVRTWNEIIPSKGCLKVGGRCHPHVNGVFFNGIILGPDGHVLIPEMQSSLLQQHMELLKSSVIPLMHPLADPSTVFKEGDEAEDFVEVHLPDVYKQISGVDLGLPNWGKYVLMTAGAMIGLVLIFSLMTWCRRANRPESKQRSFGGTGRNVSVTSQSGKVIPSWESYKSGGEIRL
row,Binder,Neutralizing potency (modified RFFIT) [IU/mg]
1,CR04-108 (antibody) VH: AMAEVQLVQSGGGLVQPGGSLRLSCAASGFTFSSYGMHWVRQAPGKGLEWVAVILYDGSDKFYADSVKGRFTISRDNSKDTLYLQMNSLRAEDTAVYYCAKFMIVADDAFDIWGQGTMVTVSSGTGGSGGTGSGTGGSTDIQLTQSPSSLSASVGDRVTITCRASQGISSHLVWYQQKPGKAPKSLIYAASSLQSGVPSRFSGSESATDFTLTISSLQPEDFATYYCQQYYSYPITFGQGTRLEIKRAAA VL: AMAEVQLVQSGGGLVQPGGSLRLSCAASGFTFSSYGMHWVRQAPGKGLEWVAVILYDGSDKFYADSVKGRFTISRDNSKDTLYLQMNSLRAEDTAVYYCAKFMIVADDAFDIWGQGTMVTVSSGTGGSGGTGSGTGGSTDIQLTQSPSSLSASVGDRVTITCRASQGISSHLVWYQQKPGKAPKSLIYAASSLQSGVPSRFSGSESATDFTLTISSLQPEDFATYYCQQYYSYPITFGQGTRLEIKRAAA,4870
2,CR04-120 (antibody) VH: AMAEVQLVQSGGGLVQPGRSLRLSCAASGFTFSTYGMHWVRQAPGKGLEWVATISYDGSIKDYADSEKGRFTISRDNSKNTLYLQMNSLRAEDTAVYYCAKGGKTGEFDYWGQGTLVTVSSGTGGSGGTGSGTGGSTDIQLTQSPSTLSASVGDRVTITCRASQGINSYLAWYQQEPGKAPKLLIYAASTLQSGVPSRFSGSGSGTEFTLTISSLQPEDFATYYCQQLNSYPFTFGPGTKVDIKRAAA VL: AMAEVQLVQSGGGLVQPGRSLRLSCAASGFTFSTYGMHWVRQAPGKGLEWVATISYDGSIKDYADSEKGRFTISRDNSKNTLYLQMNSLRAEDTAVYYCAKGGKTGEFDYWGQGTLVTVSSGTGGSGGTGSGTGGSTDIQLTQSPSTLSASVGDRVTITCRASQGINSYLAWYQQEPGKAPKLLIYAASTLQSGVPSRFSGSGSGTEFTLTISSLQPEDFATYYCQQLNSYPFTFGPGTKVDIKRAAA,4940
3,CR04-144 (antibody) VH: AMAQVQLQELGGGVVQPGRSLRLSCAASGFTFGSYGMHWVRQAPGKGLEWVATISYDGSIKDYADSEKGRFTISRDNSKNTLYLQMNSLRAEDTAVYYCAKGGKTGEFDYWGQGTLVTVSSGTGGSGGTGSGTGGSTDIQLTQSPSSLSASVGDRVTITCRASQGISSYLAWYQQKPGKGPKLLIYAASTLQSGVPSRFSGSGSGTDFSLTISSLQPEDLATYYCQQYDSYPLTFGGGTKVEIKRAAA VL: AMAQVQLQELGGGVVQPGRSLRLSCAASGFTFGSYGMHWVRQAPGKGLEWVATISYDGSIKDYADSEKGRFTISRDNSKNTLYLQMNSLRAEDTAVYYCAKGGKTGEFDYWGQGTLVTVSSGTGGSGGTGSGTGGSTDIQLTQSPSSLSASVGDRVTITCRASQGISSYLAWYQQKPGKGPKLLIYAASTLQSGVPSRFSGSGSGTDFSLTISSLQPEDLATYYCQQYDSYPLTFGGGTKVEIKRAAA,6250
4,CR04-140 (antibody) VH: AMAQMQLVQSGGGVVQPGRSLRLSCAASGFTFSSYGMHWVRQAPGKGLEWVAVILYDGSNKYYADSVKGRFTISRDNSKNALYLQMNSLRAEDTAVYYCAKVTNPGDAFDIWGQGTMVTVSSGTGGSGGTGSGTGGSTDIQMTQSPSSLSASVGDRVTITCRASQGISSALAWYQQKPGKAPKLLIYDASSLESGVPSRFSGSGSGTDFTLTISSLQPEDFATYYCQQFNSYPLTFGGGTKVEIKRAAA VL: AMAQMQLVQSGGGVVQPGRSLRLSCAASGFTFSSYGMHWVRQAPGKGLEWVAVILYDGSNKYYADSVKGRFTISRDNSKNALYLQMNSLRAEDTAVYYCAKVTNPGDAFDIWGQGTMVTVSSGTGGSGGTGSGTGGSTDIQMTQSPSSLSASVGDRVTITCRASQGISSALAWYQQKPGKAPKLLIYDASSLESGVPSRFSGSGSGTDFTLTISSLQPEDFATYYCQQFNSYPLTFGGGTKVEIKRAAA,478
